The values that follow come from patent US20240043859A1, “HERBICIDE-RESISTANT PROTEIN, AND GENE AND USE THEREOF” (QINGDAO KINGAGROOT CHEMICAL COMPOUND CO., LTD., priority 2020, published 2024).

First the molecules themselves.
B1: QYD69: AAD-like candidate enzyme; 100.00% identical to US20170211087-0004 (protein)
chain: MAQTTLQITPTGATLGATVTGVHLATLDDAGFAALHAAWLQHALLIFPGQHLSNDQQITFAKRFGAIERIGGGDIVAISNVKADGTVRQHSPAEWDDMMKVIVGNMAWHADSTYMPVMAQGAVFSAEVVPAVGGRTCFADMRAAYDALDEATRALVHQRSARHSLVYSQSKLGHVQQAGSAYIGYGMDTTATPLRPLVKVHPETGRPSLLIGRHAHAIPGMDAAESERFLEGLVDWACQAPRVHAHQWAAGDVVVWDNRCLLHRAEPWDFKLPRVMWHSRLAGRPETEGAALV
modifications: Synthetic polypeptide, QYD69, D69
B2: QYD67: AAD-like candidate enzyme; 100.00% identical to US20180244732-0002 (protein)
chain: MSPAFDIAPLDATFGAVVTGVHLATLDDAGFAALHAAWLQHALLIFPGQHLSNDQQITFAKRFGAIERIGGGDIVAISNVKADGTVRQHSPAEWDDMMKVIVGNMAWHADSTYMPVMAQGAVFSAEVVPAVGGRTCFADMRAAYDALDEATRALVHQRSARHSLVYSQSKLGHVQQAGSAYIGYGMDTTATPLRPLVKVHPETGRPSLLIGRHAHAIPGMDAAESERFLEGLVDWACQAPRVHAHQWAAGDVVVWDNRCLLHRAEPWDFKLPRVMWHSRIAGDPASETALAH
modifications: Synthetic polypeptide, QYD67, D67
B3: QYD61: AAD-like candidate enzyme; 100.00% identical to US20190024109-0292 (protein)
chain: MSVVANPLHPLFAAGVEDIDLREALGSTEVREIERLMDEKSVLVFRGQPLSQDQQIAFARNFGPLEGGFIKVNQRPSRFKYAELADISNVSLDGKVAQRDAREVVGNFANQLWHSDSSFQQPAARYSMLSAVVVPPSGGDTEFCDMRAAYDALPRDLQSELEGLRAEHYALNSRFLLGDTDYSEAQRNAMPPVNWPLVRTHAGSGRKFLFIGAHASHVEGLPVAEGRMLLAELLEHATQREFVYRHRWNVGDLVMWDNRCVLHRGRRYDISARRELRRATTLDDAVV
modifications: Synthetic polypeptide, QYD61, D61
B4: QYD64: AAD-like candidate enzyme; 100.00% identical to US20180066275-0002 (protein)
chain: MSLQLKPLHPVFGAEASGLDLTRPLSDADVRAVNAAMNEHAVLVFRGQPLTAQQQLDFAKHFGPLDIGLKRVFKRPERLEDERLIDISNVDAQGNIARRDSPKNLSNFANQLWHSDSSFMNPRAAYSMLHCVIKPSWGGNTEFADLRHAYDTLDERTKAEIQDLKAEHFALHTRILLGDDAYTDDQKKEIPPAVWPLADTHPGSGRKVLFVGVHAREIIGWPVAEARMYLSDLLEHATRRENVYVHEWTPGDLVIWDNRSTLHRGRRYDITERRELRRTTINDTPEAMLMAA
modifications: Synthetic polypeptide, QYD64, D64
B5: QYD71: AAD-like candidate enzyme; 100.00% identical to CN109456986-0002 (protein)
chain: MPFQVNQLHPIFAAEMFGCDILKPVTDETRNAVEDAMAKYAVLVIRDQAAASDEDQVRFAKAFGPLELPPDLGMSERTRPTRVHPKLYDVSNLDENGNLDKPDTLRRKFAKGNELFHTDSSFNDLPTKWSMLLAHVVTPTGGNTEFVDTRAAYDALSPSMKEQVEPLSVIHSLTYSRERGGLTGTTVFDRAFPPVTQPLVRTSASGRKALYIGAHAATVVGMDEAAGRTLLDKLISDASRPEYIYSHKWLPGDLVIWDNRCTMHRATEYAYMEDRRDLRRATINEFGEDRVGARPI
modifications: Synthetic polypeptide, QYD71, D71
B6: QYD68: AAD-like candidate enzyme; 100.00% identical to JP2018506305-0002 (protein)
chain: MSPAFDIAPLDATFGAVVTGVKLADLDDAGWLDLQAAWLQHALLIFPGQHLSNDQQITFAKRFGAIERIGGGDIVAISNVKADGTVRQHSPAEWDDMMKVIVGNMAWHADSTYMPVMAQGAVFSAEVVPAVGGRTCFADMRAAYDALDEATRALVHQRSARHSLVYSQSKLGHVQQAGSAYIGYGMDTTATPLRPLVKVHPETGRPSLLIGRHAHAIPGMDAAESERFLEGLVDWACQAPRVHAHQWAAGDVVVWDNRCLLHRAEPWDFKLPRVMWHSRLAGRPETEGAALV
modifications: Synthetic polypeptide, QYD68, D68
B7: QYD60: AAD-like candidate enzyme; 100.00% identical to US20160002662-0002 (protein)
chain: MSPAFDIAPLDATFGAVVTGVKLADLDDAGWLDLQAAWLEYALLVFPDQHLTREQQIAFARRFGPLEFEMAAISNVRPDGSLRVESDNDDMMKILKGNMGWHADSTYMPVQAKGAVFSAEVVPSVGGQTGFADMRAAYDALDEDLKARVETLQARHSLHYSQSKLGHQTKAADGEYSGYGLHDGPVPLRPLVKIHPETGRKSLLIGRHAHAIPGLEPAESERLLQQLIDFACQPPRIYHHDWAPGDAVLWDNRCLLHQATPWDMTQKRIMWHSRIAGDPASETALAH
modifications: Synthetic polypeptide, QYD60, D60
B8: QYD66: AAD-like candidate enzyme; 100.00% identical to US20140194292-0002 (protein)
chain: MERHAMSNGKQIVRIEPLPGKTFGAVVTGVRLSELDEDTFSLLYREWLQYALLIFPAQYLTDSQQRDAASKFGCLVEGLEAVEISNLLPTGEVRAAPDDDMMKIIRGNMQWHQDNTYMPLQAKGALFSAKRVPSSGGETGFADMRAAWDALDTETQDRLANLSAYHSLAQSQKNLGEDVKSSDSEYIGYGLDVSTVPRRSLLKIHPETDRKTLAVGRHAFGVTGMAEQESTQFVSDLIDFAVADESRTYHHIWSEGDAILWDNRCLMHRACPWNFSQPRVMLHSRIAGDPSTEAALNS
modifications: Synthetic polypeptide, QYD66, D66
B9: QYD63: AAD-like candidate enzyme; 100.00% identical to US20140179534-0002 (protein)
chain: MSSLELTPLHPLFAAEARGIDIRQPLSPSEVKQINAAMNRYAVLVWRGQPLTGQQQIDFAKAFGPLDLGLKKVFKRPERLEDERLIDISNVDAEGKVARRDSPKNLSNFANQLWHSDSSFQNPRAAYSMLHALVLPSWGGNTEFAELRAAYDALPERTRSEIEGLRAEHYALHTRILLGDEAYTDDQKKAIPPAVWPLAQTHPGSGRKLLFVGVHAREIIGWPVAEGRMFLSDLLEHATRREFVYTHEWQVGDLVMWDNRSTLHRGRRYDIGERRELRRTTIEDVPEATLMAA
modifications: Synthetic polypeptide, QYD63, D63
B10: QYD70: AAD-like candidate enzyme; 100.00% identical to US20190017066-0048 (protein)
chain: MHAALTPLTNKYRHIDVQPLTGVLGAEITGVDLREPLDDSTWNEILDAFHTYQVIYFPGQAITNEQHIAFSRRFGPVDPVPILKSIEGYPEVQMIRREANESSRYIGDDWHADSTFLDAPPAAVVMRAIEVPEYGGDTGFLSMYSAWETLSPTMQATIEGLNVVHSATKVFGSLYQATNWRFSGTSVKVMDVDAGDRETVHPLVVTHPVTGRRALYCNQVYCQKIQGMTDAESKSLLQFLYEHATQFDFTCRVRWKKDQVLVWDNLCTMHRAVPDYAGKFRYLTRTTVAGDKPSR
modifications: Synthetic polypeptide, QYD70, D70
B11: QYD65: AAD-like candidate enzyme; 100.00% identical to CN103013939-0002 (protein)
chain: MAIAIRQLHPHFVGEVSGVDLRHPLTRDEVAELQAAIDHYAVLVFHDQDIGDEQQLAFALNFGDREKARGGTVTKKEDYRLTTGLNDVSNLGKDGKPLPPDHRTHLFNLGNCLWHSDSSFRPIPAKYSILSARIVNPKGGNTEFADMRAAYDALDEQTKAEIDDLVSEHSLMYSRGSLGFLDYTDEEKKMFKPVRQRLVRTHPAHGRKSLYLSSHAGAVVGMSMPEGRLLLRDLTEHATQPEFVYVHKWRLHDLVMWDNRQTVHRVRRYDQSQPRDMRRATVAGTEPTVAQQAAE
modifications: Synthetic polypeptide, QYD65, D65

This data set is described as follows: Chromogenic reaction of degrading herbicides in bacteria: 2,4-D. Conditions: recombinant E. coli expressing the gene, 2,4-D added to the medium; red = phenols. It is filed as cell-based, Escherichia coli. The procedure:
To transform the plasmids to be tested, an AAD12-expressing plasmid and a blank control plasmid pET15b were respectively transformed into the protein expression E. coli BL21(DE3) strains. A monoclone was selected and inoculated in a 10 ml centrifuge tube with 3 ml LB medium, and cultivated at 37° C., 200 rpm for 6-8 hours. The culture medium was added with 0.1 mM IPTG and 2 mM α-ketoglutaric acid, and then 0.5 mM 2,4-D. The temperature was switched to 28° C. and the cultivation continued overnight. In the next morning, 200 μL of each bacteria solution was taken and centrifuged to precipitate thallus, 180 μL of the supernatant was taken and added in a 96-well plate, and 20 μL of borate buffer of pH 10 was added. Then the mixture was added with 2 μL of 8% potassium ferricyanide and mixed well, followed by adding 2 μL of 2% 4-aminoantipyrine, and placed at room temperature for 5 min to observe the color and detect the A510 value.
The bacteria solution also appeared red when 2,4-D was directly added into the medium of AAD12-expressing bacteria, as shown in FIG. 1.
2,4-D was added into these bacteria solutions of AAD gene-expressing recombinant E. coli and cultivation was continued for color development.
For B1, the “Chromogenic reaction of degrading herbicides in bacteria: 2,4-D” value (shortened to “Chromogenic reaction”) is recorded as “Yes”.

For B2, the “Chromogenic reaction” value was “Yes”.

Regarding B3, the “Chromogenic reaction” value was “Yes”.

Turning to B4, the “Chromogenic reaction” value was “Yes”.

For B5, the “Chromogenic reaction” value was “Yes”.

As to B6, the “Chromogenic reaction” value is recorded as “Yes”.

For the molecule B7, the “Chromogenic reaction” value is on record as “Yes”.

For the molecule B8, the “Chromogenic reaction” value is recorded as “Yes”.

As to B9, the “Chromogenic reaction” value was “Yes”.

Regarding B10, the “Chromogenic reaction” value is “Yes”.

On to B11, for which the “Chromogenic reaction” value is recorded as “Yes”.
